Measurements as given in patent publication US20090221530A1, “Relaxase Modulators and Methods of Using Same” (priority 2005, published 2009).

Columns and labels:
Assay in all cases: cleavage_in_vitro
[1] = system: TraI K265M K265M (Escherichia coli F plasmid); details: in vivo transfer 59%; 6 mM MgCl2, 37 C
[2] = system: TraI D81N D81N (Escherichia coli F plasmid); details: crossover 10%; in vivo transfer 0.0030%; printed DB1N in table; 6 mM MgCl2, 37 C
[3] = system: TraI H159Q H159Q (Escherichia coli F plasmid); details: crossover 95%; text calls this no change; 6 mM MgCl2, 37 C
[4] = system: TraI wild-type (full length or N300) (Escherichia coli F plasmid); details: crossover 100%; 6 mM MgCl2, 150 mM NaCl, pH 7.5, 37 C
[5] = system: TraI H159E H159E (Escherichia coli F plasmid); details: crossover eliminated per text (nd in table); in vivo transfer 0.0010%; 6 mM MgCl2, 37 C

For oriT 22-mer, the activity (% of WT cleavage) [1] was 100, the activity (% of WT cleavage) [2] was 53 and the activity (% of WT cleavage) [3] was 55. The activity [4] was 100 % cleavage and the activity (% of WT cleavage) [5] was 8.5.
